# Measured values: the Human Domainome abundance scans (Beltran et al. 2025)
# ± gives the uncertainty stated by the source.
# Test: abundance fitness (aPCA) (normalised: wild type 0, dead -1); higher = more abundant; growth selection in yeast, the domain comes from the species named
# Settings: Homo sapiens
row,Substance,abundance fitness
1,"DnaJ homolog subfamily B member 1 E62W, P25685",-0.626 ± 0.096
2,"DnaJ homolog subfamily B member 1 E62Y, P25685",-0.552 ± 0.22
3,"DnaJ homolog subfamily B member 1 F45A, P25685",-0.21 ± 0.076
4,"DnaJ homolog subfamily B member 1 F45C, P25685",-0.351 ± 0.12
5,"DnaJ homolog subfamily B member 1 F45D, P25685",-0.352 ± 0.076
6,"DnaJ homolog subfamily B member 1 F45E, P25685",-0.277 ± 0.095
7,"DnaJ homolog subfamily B member 1 F45G, P25685",-0.247 ± 0.089
8,"DnaJ homolog subfamily B member 1 F45H, P25685",-0.096 ± 0.17
9,"DnaJ homolog subfamily B member 1 F45I, P25685",-0.158 ± 0.07
10,"DnaJ homolog subfamily B member 1 F45K, P25685",-0.444 ± 0.16
11,"DnaJ homolog subfamily B member 1 F45L, P25685",-0.21 ± 0.055
12,"DnaJ homolog subfamily B member 1 F45M, P25685",-0.305 ± 0.092
13,"DnaJ homolog subfamily B member 1 F45N, P25685",-0.221 ± 0.1
14,"DnaJ homolog subfamily B member 1 F45P, P25685",-0.508 ± 0.072
15,"DnaJ homolog subfamily B member 1 F45Q, P25685",-0.211 ± 0.11
16,"DnaJ homolog subfamily B member 1 F45R, P25685",-0.185 ± 0.062
17,"DnaJ homolog subfamily B member 1 F45S, P25685",-0.143 ± 0.085
18,"DnaJ homolog subfamily B member 1 F45T, P25685",-0.281 ± 0.075
19,"DnaJ homolog subfamily B member 1 F45V, P25685",-0.306 ± 0.061
20,"DnaJ homolog subfamily B member 1 F45W, P25685",0 ± 0.099
21,"DnaJ homolog subfamily B member 1 F45Y, P25685",-0.178 ± 0.17
22,"DnaJ homolog subfamily B member 1 F64A, P25685",-0.361 ± 0.3
23,"DnaJ homolog subfamily B member 1 F64Q, P25685",-0.344 ± 0.28
24,"DnaJ homolog subfamily B member 1 F64S, P25685",-0.109 ± 0.23
25,"DnaJ homolog subfamily B member 1 F64Y, P25685",0.009 ± 0.48

row,Substance,abundance fitness
1,"DnaJ homolog subfamily B member 1 G10C, P25685",-0.587 ± 0.26
2,"DnaJ homolog subfamily B member 1 G10D, P25685",-0.141 ± 0.074
3,"DnaJ homolog subfamily B member 1 G10E, P25685",0.073 ± 0.2
4,"DnaJ homolog subfamily B member 1 G10F, P25685",-0.542 ± 0.13
5,"DnaJ homolog subfamily B member 1 G10H, P25685",-0.378 ± 0.14
6,"DnaJ homolog subfamily B member 1 G10I, P25685",-0.756 ± 0.19
7,"DnaJ homolog subfamily B member 1 G10K, P25685",-0.108 ± 0.1
8,"DnaJ homolog subfamily B member 1 G10L, P25685",-0.223 ± 0.058
9,"DnaJ homolog subfamily B member 1 G10M, P25685",-0.191 ± 0.085
10,"DnaJ homolog subfamily B member 1 G10N, P25685",-0.333 ± 0.25
11,"DnaJ homolog subfamily B member 1 G10P, P25685",-0.926 ± 0.21
12,"DnaJ homolog subfamily B member 1 G10Q, P25685",-0.048 ± 0.083
13,"DnaJ homolog subfamily B member 1 G10R, P25685",-0.239 ± 0.066
14,"DnaJ homolog subfamily B member 1 G10S, P25685",-0.163 ± 0.061
15,"DnaJ homolog subfamily B member 1 G10T, P25685",-0.564 ± 0.16
16,"DnaJ homolog subfamily B member 1 G10V, P25685",-0.606 ± 0.087
17,"DnaJ homolog subfamily B member 1 G10W, P25685",-0.704 ± 0.12
18,"DnaJ homolog subfamily B member 1 G10Y, P25685",-0.658 ± 0.12
19,"DnaJ homolog subfamily B member 1 G14A, P25685",-0.353 ± 0.13
20,"DnaJ homolog subfamily B member 1 G14C, P25685",-0.266 ± 0.12
21,"DnaJ homolog subfamily B member 1 G14E, P25685",-0.192 ± 0.078
22,"DnaJ homolog subfamily B member 1 G14F, P25685",-0.446 ± 0.2
23,"DnaJ homolog subfamily B member 1 G14H, P25685",-0.133 ± 0.24
24,"DnaJ homolog subfamily B member 1 G14I, P25685",-0.235 ± 0.12
25,"DnaJ homolog subfamily B member 1 G14K, P25685",-0.13 ± 0.093

row,Substance,abundance fitness
1,"DnaJ homolog subfamily B member 1 G14L, P25685",-0.266 ± 0.074
2,"DnaJ homolog subfamily B member 1 G14M, P25685",-0.385 ± 0.096
3,"DnaJ homolog subfamily B member 1 G14N, P25685",-0.232 ± 0.15
4,"DnaJ homolog subfamily B member 1 G14P, P25685",-0.347 ± 0.12
5,"DnaJ homolog subfamily B member 1 G14Q, P25685",-0.251 ± 0.091
6,"DnaJ homolog subfamily B member 1 G14R, P25685",-0.274 ± 0.056
7,"DnaJ homolog subfamily B member 1 G14S, P25685",-0.126 ± 0.042
8,"DnaJ homolog subfamily B member 1 G14T, P25685",-0.072 ± 0.092
9,"DnaJ homolog subfamily B member 1 G14V, P25685",-0.241 ± 0.11
10,"DnaJ homolog subfamily B member 1 G14Y, P25685",-0.378 ± 0.32
11,"DnaJ homolog subfamily B member 1 G40A, P25685",-0.128 ± 0.1
12,"DnaJ homolog subfamily B member 1 G40C, P25685",-0.113 ± 0.16
13,"DnaJ homolog subfamily B member 1 G40D, P25685",-0.301 ± 0.078
14,"DnaJ homolog subfamily B member 1 G40E, P25685",-0.194 ± 0.1
15,"DnaJ homolog subfamily B member 1 G40F, P25685",-0.049 ± 0.13
16,"DnaJ homolog subfamily B member 1 G40H, P25685",-0.131 ± 0.15
17,"DnaJ homolog subfamily B member 1 G40I, P25685",-0.026 ± 0.13
18,"DnaJ homolog subfamily B member 1 G40K, P25685",0.005 ± 0.15
19,"DnaJ homolog subfamily B member 1 G40L, P25685",-0.188 ± 0.1
20,"DnaJ homolog subfamily B member 1 G40M, P25685",-0.14 ± 0.1
21,"DnaJ homolog subfamily B member 1 G40N, P25685",-0.173 ± 0.18
22,"DnaJ homolog subfamily B member 1 G40P, P25685",-0.248 ± 0.12
23,"DnaJ homolog subfamily B member 1 G40Q, P25685",-0.103 ± 0.14
24,"DnaJ homolog subfamily B member 1 G40R, P25685",-0.041 ± 0.088
